Laboratory results reported in the supplement of paper PMC9732359.
± gives the uncertainty stated by the source.

Assay: protein stability index of a GFP-peptide fusion (yeast GPS) (PSI 1-4); higher = more stable; sorted into four equal gates, so the index is relative within each strain
Conditions: pdr5∆
Summary of the method: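 Yeast carrying a pooled library were grown to mid-log phase in leucine-free medium. Each library plasmid expresses Cherry and has a tiled 17-residue yeast protein peptide fused downstream of GFP. Cells were sorted into four equal gates by GFP/Cherry ratio, and plasmids from each gate were PCR-amplified, Illumina-sequenced and assigned to strains by barcode. Summing, across gates, the read frequency times the gate number gave each peptide's protein stability index.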

Sequence | protein stability index
TDRQKKLLGVDMQSSVD [YLR018C/POM34] | 3.08 ± 0.055
TDYARAKNRILASKIKQ [RRI1] | 2.07 ± 0.072
TEDIREGDQAEVIFSFE [YMR129W/POM152] | 3.39 ± 0.072
TEEPDLAIADVETKLET [DSN1] | 3.35 ± 0.11
TEGCIGLSQTEAFGNIK [MCD1] | 2.61 ± 0.076
TEISPMAGSQFENGNIT [RRP45] | 2.5 ± 0.05
TEKQRKKQIAFPQRKYA [RPL35A] | 1.44 ± 0.096
TELASKDNAIYNGFIDI [YCS4] | 1.68 ± 0.071
TELLDEFIAAVNNPQEE [RPN10] | 3.17 ± 0.14
TENEIPNLIEKMVAKGL [BRR2] | 2.81 ± 0.13
TERHIQVGDGLEILIVT [PRE7] | 1.97 ± 0.07
TFDSSWNWAKQSLLSLY [FAS2] | 1.3 ± 0.058
TFSPSGKLGQIDYALTA [PRE8] | 2.26 ± 0.092
TFSQESGLMVILYTSKI [RRI2] | 3.05 ± 0.084
TFSSSISTYISTDELVG [POP8] | 2.93 ± 0.057
TFVHVTDLSGKETIARV [RPS14A] | 2.82 ± 0.073
TFVPTNSDKPRDVYVFD [DIS3] | 2.93 ± 0.071
TGAGVDVNTNANANANA [SNF11] | 3.31 ± 0.07
TGDVLLIQDLLHRLTPK [RPN1] | 3.03 ± 0.061
TGESWVKLTYNSPSSAL [YDL088C/ASM4] | 1.75 ± 0.055
TGHLFLKIIHTSVWAGQ [PRP8] | 1.31 ± 0.056
TGKDCVAIACDLRLGSQ [PUP3] | 1.48 ± 0.092
TGLHFGRLSLRSLTAYA [QCR10] | 1.5 ± 0.059
TGLSQIPNRRFTLWWSP [PRP8] | 2.78 ± 0.056
TGLVSIRGKILTGTVVS [RPS11A] | 2.75 ± 0.053

Sequence | protein stability index
TGPIEPKARQELPTQLA [RRP46] | 2.79 ± 0.074
TGPKQQEITTNLENHFK [SCL1] | 2.97 ± 0.037
THAVGNNCEDFVSRPDR [FAS1] | 3.08 ± 0.18
THNDIDSTAVALEEGLN [YJL039C/NUP192] | 3.05 ± 0.047
THNSYEKACQVLKYMLL [RPN6] | 2.44 ± 0.073
THSQTGTQQSNMYTSTQ [SIR4] | 3.16 ± 0.046
TICIELKTVLHNGRDKI [RGR1] | 1.62 ± 0.062
TIDNIDSENFSFEKLYE [YMR129W/POM152] | 3.26 ± 0.076
TIGKRRTTTNTTAEPKA [TAF14] | 3.26 ± 0.042
TISECNLYDDVKCWSKF [MED1] | 2.34 ± 0.2
TISQALLNAADRDALSG [PUP3] | 2.11 ± 0.097
TISSADFIQNVGRLWDQ [ECM29] | 3.5 ± 0.14
TIVQLCKKKEMSQYQST [YIL149C/MLP2] | 2.14 ± 0.061
TIVSNVEEKPGDRGALA [RPL2A] | 3.1 ± 0.075
TKDPDEQQLFEIFAFGN [CSN9] | 3.09 ± 0.088
TKEQYAAESKKYRQTKL [RPL5] | 3.28 ± 0.18
TKLHSGDYGEEEDADQE [SRB8] | 2.58 ± 0.12
TKNNTQASGITAGAAAN [SSN3] | 2.08 ± 0.051
TKSETKQENETMQPPYI [MED11] | 2.85 ± 0.059
TKSPAYPMMHQVRNQVF [RGR1] | 1.88 ± 0.054
TKYSDVLGFLQLFHNLI [YJL039C/NUP192] | 2.65 ± 0.062
TKYTDDMATGSNDTTAF [SRB8] | 3.14 ± 0.087
TLDNIDDINKAKAVWEN [ARP9] | 3.18 ± 0.062
TLDNPLLVDKDANGVSL [YJL039C/NUP192] | 3.12 ± 0.048
TLDREYITLKATFLKDD [QCR2] | 1.44 ± 0.045

Sequence | protein stability index
TLETIEIHPITFPPEVL [RRP43] | 2.25 ± 0.045
TLISRISSLFTITTILI [YML103C/NUP188] | 1.8 ± 0.066
TLKYICAECSSKLSLSR [RPC10] | 2.51 ± 0.069
TLNNIFRFDSIQRETLL [GRR1] | 2.59 ± 0.081
TMLITGQRPDRATTYEK [SIN4] | 3.09 ± 0.15
TMMANFEEWIKMATDNK [BRN1] | 3.16 ± 0.11
TNAFLDSLTRAVKDQQK [SNF2] | 2.47 ± 0.071
TNAPLRTLNIQPEVAVK [YIL149C/MLP2] | 2.03 ± 0.048
TNKENNIVDSSAAGNKA [YIL149C/MLP2] | 2.44 ± 0.057
TNLKNHPAYLFKGLETP [YLR018C/POM34] | 2.51 ± 0.039
TNNDSNNKNNSITTGND [MED2] | 2.64 ± 0.057
TNNGNDDNETENPNFWR [GRR1] | 3.16 ± 0.05
TNNTIRYNAKRRNWRRT [RPL39] | 3.02 ± 0.22
TNQLKSLKGLQSKLKDV [RPN8] | 1.59 ± 0.23
TNSEDKLSKVQLYEDLC [MED4] | 3.22 ± 0.091
TNSHYNNTNTDNVSGLT [SNF2] | 3.31 ± 0.046
TNVIAFAFWNLLVKFIK [YLR018C/POM34] | 1.39 ± 0.084
TNVNPSKNFNVILASSL [YML103C/NUP188] | 2.16 ± 0.048
TNWARTTFRNEYGKHDF [MED8] | 2.56 ± 0.079
TNYEMSYWQKSYFKNSV [LIN1] | 2.09 ± 0.036
TPKYRLVVRFTNKDIIC [RPL5] | 1.64 ± 0.11
TPLFHALAEGHGDAAVL [NAS6] | 3.1 ± 0.1
TPLTFALPRGARTATVS [RPL14A] | 1.5 ± 0.061
TPMGGFVHYGEIKNDFI [RPL3] | 3.19 ± 0.092
TPNVNVLVLHGDKDTRA [ISW2] | 2.36 ± 0.05

Sequence | protein stability index
TPQSKGFVRNSFFSGLS [RPO31] | 2.79 ± 0.074
TPSLPIAPPVAPHDSEA [SNF5] | 2.48 ± 0.074
TPSSDQNPLPTRFEVEL [SOH1] | 3.1 ± 0.061
TPTHSDSHEDMKRRRLE [ROX3] | 3.33 ± 0.15
TQDVFLKDFNTERVVEI [FAS2] | 3.205 ± 0.023
TQEQFVKRRRDMLEHIN [SRB4] | 2.06 ± 0.27
TQQQPGAPGANARMPGM [SRP54] | 2.89 ± 0.096
TQQSHEQQPEQPQETEE [RPT4] | 3.16 ± 0.058
TQTEELKFMAASEVATH [PRP8] | 2.48 ± 0.08
TQTGLLQDLEEAKSFQD [RPC82] | 2.46 ± 0.12
TQYATSQKTKTIQSDLN [SMC2] | 2.34 ± 0.072
TRASKVLEQLSGQTPVQ [RPL11A] | 3.01 ± 0.12
TRDEKDPKRLFEGNALI [RPS9A] | 3.6 ± 0.12
TRFPPAVFYTPKELGGL [PRP8] | 3.08 ± 0.07
TRGRNIIMHKDVEIGRM [RET1] | 3.1 ± 0.16
TRGRSATIRETYEIICD [RRP43] | 2.68 ± 0.05
TRLLNIVMQLRKCCNHP [ISW2] | 2.84 ± 0.061
TRSIKEKWLLNQIPVTE [SRB6] | 1.34 ± 0.18
TRTVITDWDPQFNAITG [SMC2] | 2.99 ± 0.083
TRYMFQRDFRKHGAVHM [RPL21B] | 2.14 ± 0.06
TSAHEAIRADPAFKPTE [RPL5] | 3.17 ± 0.14
TSASQPFKFGKTSEKSE [YOR098C/NUP1] | 3.22 ± 0.15
TSCLQNNNQKIDDNYIV [SRB8] | 3.1 ± 0.081
TSDGALSVMCGCGTVKR [RPR2] | 2.67 ± 0.1
TSINHKIYRVGKGDDEA [RPL3] | 3.61 ± 0.1

Same assay, conditions: san1∆

Sequence | protein stability index
TDLESLSSGESNEIKVT [SIR4] | 2.69 ± 0.1
TDQILQLLKEDSEKRNK [RRP45] | 3.52 ± 0.098
